From the DeepSol protein solubility set

Experiment: soluble on expression in E. coli; label from the status in PepcDB or PDB records

| Sequence | soluble on expression in E. coli |
| --- | --- |
| MPNRHGSPRSSTRWAGLAIIALACLLSACSSTPTRSLTSRDTSGQRTHGAAINDPSAGLEEISIEAMALVGTPYRYGGNTPDSGFDCSGLVRYVVQRAASVNLPRTAAEMGTRGFALERRDVASGDLVFFNTTGRPNSHVGIYVGQNRFVHAPATGGTVRLEDMSKRYWASRYMGARRVVAVSNLPDLPASPAAATQSIAAGAAAPATAPAHANDDDPLGTLARARGTESSPLMSTRNAAPVVVPPADDDPIARFATQ | soluble |
| MPNRPDLCLGVMSIELRHLRAAVAIAEAGSFTAAANALHITQPALTRTVQQLETSLGVRLFDRTSRALALTEDGAGFVEKVRVILGDLDSAVALYTNRSLVLGFSWLLPDPWAQQVIDDVEKNSRATVVPRRYDDPVAALNNATVDAAVVRRDVPGDEFVQHPLFEEQRIAAVSTASPLATRESIDWAEFGTLPLVINTLSGTTSEDLWPNHDGPVVTCSNFDDWLELIAADRGVGTVPEVARRRVTHRNVQFIPLVGAPPAVVRFVYRRNRVTPLLRVLRDAAIRHSPPPGSVTVGQHD | not soluble |
| MPPKKQQEVVKVQWGRPGNNLKTGIVGMPNVGKSTFFRAITKSVLGNPANYPYATIDPEEAKVAVPDERFDWLCEAYKPKSRVPAFLTVFDIAGLTKGASTGVGLGNAFLSHVRAVDAIYQVVRAFDDAEIIHVEGDVDPIRDLSIIVDELLIKDAEFVEKHLEGLRKITSRGANTLEMKAKKEEQAIIEKVYQYLTETKQPIRKGDWSNREVEIINSLYLLTAKPVIYLVNMSERDFLRQKNKYLPKIKKWIDENSPGDTLIPMSVAFEERLTNFTEEEAIEECKKLNTKSMLPKIIVTGYNALNLINYFTCGEDEVRSWTIRKGTKAPQAAGVIHTDFEKAFVVGEIMHYQDLFDYKTENACRAAGKYLTKGKEYVMESGDIAHWKAGKR | soluble |
| MPQLSIIIPLFNSCNFISRALQSCINQTLKDIEILIIDDKSKDNSLNMVLEFAKKDPRIKIFQNEENLGTFASRNLGVLHSSSDFIMFLDSDDFLTLDACKIALKEMKKGFDLLCFDAFVHRVKTKQFYRFKQDEFFNQKEFLEFLSKQRHFCWSVWAKCFRKDIILKSFEKIKIDERLSYGEDVLFCYVYFMFCEKIAVFKTCIYHYEFNPNGRYENKNKEILWQNYQDKKKSNELVKKLCLNFKNNDFHKKLFEVLEKEEFDLQRRVDEARNLEHHHHHH | soluble |
| MPQPESENLSVKLFKNHKQALETSGLVPYLPSSLEQLEQSGRTWYRELRRPQWIWQGVDAIELESILARIANSQKHRSRDEWLDTVSGYHSGNWAYEWIHAGMEHQKTASELDGDEAAEAYFKASLYFSVAGYPHIKGDNLAIQSQVLASQAYDMAAKQTSHRVEKILVPYQGRKITCYLHLPNTEKPLPVVIVSGGMDSLQTDMWRLYRDFLAPNNMAMLTLDMPSIGHSSHWPLSEDSSCLHQAVLNYLPNIPWVDRFHAAVMGFRFGGNVALRLSFLEPSRLKACVALGAPVHQILTNSARLKTMPKMYLDVLASRLAKQVVDINSLTSQMQAWSLKNQGFLSGGRKTSVSVLAIGLKDDPVSPKSDNKLAALFSKYGKGVELNSKTLHSGYEEALKQMIEWIKEEMKQ | not soluble |
| MPQTPPFPVMYGSTNGYNKNLYKAKEEDYEGLYYHDNNLISGSLEALIEHLVPTVAYYPDRTYIFTFLLSSRLFLHPYELMSKVCHLCVDQQRLSDPQADKARVRKIAPKILQLLTEWTETFPYDFRDERMMKSLKELTHRLSTGEDLYRKAVQQMTQTLIRKLTTLSQYEEALAKINSSVTDRLTVLKTKPQSIQRDILTICNDPFTLAQQLTHIELERLSYIGPEEFVQAFVQKDPLDNDKNCFSDHKKASNLEAYVEWFNRLSYLVATEICMPVKKKHRARVIEFFIDVARECFNIGNFNSLMAIITGMNMSPVSRLKKTWAKVKTAKFDILEHQMDPSSNFYNYRTALRGATQRSITAHSSREKIVIPFFSLLIKDIYFLNEGCANRLPNGHVNFEKFWGLAKQVTEFMTWKKVECPFDRDRKILQYLLTAPVFSEDALYLASYESEGPENNMEKDRWKSLRSSLLNRT | soluble |
| MPRLFLTSDLDSFPVTPQGCSVTLACGVRLQFPAGATATPITIRYRLLLPEPGLVPLGPHDALLSHVLELQPHGVAFQQDVGLWLLFTPPQARRCREVVVRTRNDNSWGDLETYLEEEAPQRLWAHCQVPHFSWFLVVSRPVSNACLVPPEGTLLCSSGHPGVKVIFPPGATEEPRRVSMQVVRMAGRELQALLGEPEAAVSPLLCLSQSGPPSFLQPVTVQLPLPSGITGLSLDRSRLHLLYWAPPAATWDDITAQVVLELTHLYARFQVTHFSWYWLWYTTKNCVGGLARKAWERLRLHRVNLIALQRRRDPEQVLLQCLPRNKVDATLRRLLERYRGPEPSDTVEMFEGEEFFAAFERGIDVDADRPDCVEGRICFVFYSHLKNVKEVYVTTTLDREAQAVRGQVSFYRGAVPVRVPEEAEAARQRKGADALWMATLPIKLPRLRGSEGPRRGAGLSLAPLNLGDAETGFLTQSNLLSVAGRLGLDWPAVALHLGVSYREVQRIRHEFRDDLDEQIRHMLFSWAERQAGQPGAVGLLVQALEQSDRQDVAEEVRAVLELGRRKYQDSIRRMGLAPKDPALPGSSAPQPPEPAQA | soluble |
| MPRVNIGPDNNAQIEITTLQSQSKSRKLKKIKMASGSERVVVVGVDDSAHSYHALETALDLFFIPFKANPRFKLVVLHARPTATFFLGVAGPGTVDIIPMVEEDLNKTADLVKKKCAEVCSAKSVEISSLEVIEGDPRNIMLEAVERHHA | soluble |
| MPRVWKFGDQINTDDILPGKYAPFMVGEDRFHLYAFAHLRPEFAKEVRPGDILVFGRNAGLGSSREYAPEALKRLGIRAIIAKSYARIFFRNLVNLGIVPFESEEVVDALKDGDEVELDLESGVLTRGEERFLLRPPPPFLLEALKEGSLLDYYKKHGRFPGE | soluble |
| MPSEKEDDVMKNVTFAEGKKFGDWKIGKTIDEGGFGKVYIATSISDPKKVAALKAESNEIEGGSAIKLEAMILNKLNANGPVPHIPVVHLCAKRKLYCYMVMTLLGRNLRKLKSTNLVVNNGFSRGTWSRIGIQCLYALKYVHDNGFIHRDVKPQNFLLGNETDSERARIVHILDFGLARPFAVFHARENKWIARRARGTAEFRGTLRYTSPNVHLRKEQGRVDDVWSLLYVIIELNGGKALPWQTDSQRERVEQMKLNLPAKVVMSNMPACMDKVMPHLASLDYYQRPDYHMIFKCFWQVMENEKITPSSKYDWEKDEPDKSVPPASWENPAGPFFQSDPLGINAPPTPAEAALTEKSGKKHGKK | soluble |
| MPSGVDGVGLLVRWLIEGSRGGVTRARILMLLRERPRNAHQLSQELGLNYRTVLHHLEVLARHGLIARLYEGYGAPYALTNLAERHWSVIEDSIRRVGVRL | not soluble |
| MPSISPASDADRALVIGSGLGGLAAAMRLGAKGWRVTVIDKLDVPGGRGSSITQEGHRFDLGPTIVTVPQSLRDLWKTCGRDFDADVELKPIDPFYEVRWPDGSHFTVRQSTEAMKAEVARLSPGDVAGYEKFLKDSEKRYWFGYEDLGRRSMHKLWDLIKVLPTFGMMRADRSVYQHAALRVKDERLRMALSFHPLFIGGDPFNVTSMYILVSQLEKEFGVHYAIGGVAAIAAAMAKVIEGQGGSFRMNTEVDEILVEKGTATGVRLASGEVLRAGLVVSNADAGHTYMRLLRNHPRRRWTDAHVKSRRWSMGLFVWYFGTKGTKGMWPDVGHHTIVNAPRYKGLVEDIFLKGKLAKDMSLYIHRPSITDPTVAPEGDDTFYALSPVPHLKQAQPVDWQAVAEPYRESVLEVLEQSMPGIGERIGPSLVFTPETFRDRYLSPWGAGFSIEPRILQSAWFRPHNISEEVANLFLVGAGTHPGAGVPGVIGSAEVMAKLAPDAPRARREAEPAERLAAELEHHHHHH | not soluble |
| MPSLLSSRIRNAEFAKKIVTDPAKLVPYFKNGDYVGWSGFTGVGYPKMIPNALARHVEENNLQGKLRFKLFVGASGGADTECKWAELNMIERRCPHQVGKPISKGINSGRIQFFDKHLSMFPQDLLYGYYTRNRESNTIDTAIIEATAITEDGGIVPGASVGASPELMQLAEKIIIEVNTAIPSFEGLHDIVEIPNPPHRTPININRVDDRIGKPYIKVDPKKVIGIVEADYGDITCANSPQDETSQAIAGHLVDFFHHEVSVGRLPKNLHPLQSGIGNIANAIIGGLAHSPFKDLEVWTEVLQDTFLPLFDSEKLRFATATSTRFSPQGFEKFYSNYDYYKERILLRPQVISNHPEIIRRLGCIAMNTPVEADIYAHANSTNVLGSRMLNGLGGSADFLRNAKLSIMHTPSVRPSKKDPTGITCIVPMATHVDQTEHDLDILVTEQGLADLRGLSPTERAREVIDKCAHPDYKPLLREYFDIAENYCLARGAGHEPHILANAFKMQLNLLEKGTMKIDHW | soluble |
| MPSLSEFLRKRRARQRRLQAVPSNNKKKSNNNNIMSSTSSGKSRRAASLSSINNFEHLASVEKAGWLNKWTNYLKGYRQRWFVLDSNATLSYYRNPSEVGHTCRGSINLQEARVHTDKTTSCIVISGQSQTFHVKPQNEMDRQQWTNSLEYMRHKAITRAESEEDEDAQMAKTDSNRSDALILANRQMSGKLCDLRTAANMMNKQGDELMRALNGTVETDKNSLAERADLLKMTTSAVLQAAEEFVELSEQSAKRLNKIVAVEQKEKALLQEQLEALAKQHSSLERAASKCARGAAPVSVYSDQEDDEFHDAEEDLAMPCSNSNGPPATAGVHLTPTKRHIGAGDPSSSTCSDSGAVVVVGAHKGGRQRRTTVPERPNLPINLWSIMKNCIGKELSKIPMPVNFSEPISVLQRVTEDLEYANLLETGAKLSTLEQMCYVAAYAASNYSTTCHRTNKPFNPLLGETFEFDRMDDLGWRSVTEQVSHHPPAAAHHAEGNGWTMYQDFTMTSRFRGKYLSVIPIGFTHVVFPATKSHFSYRKITTTVHNIIVGKLWIDNHGDMEITNHETNEKCLLKFVPYSYFSREQPRKVYGIVRDAEGIPKYVVQGTWDKSIDMLKVSSWNGNHEKPKLEVDETSLKRIWTANPLPKNAEKMHNFTKLAIELNEPEEGVAPTDSRLRPDQRLMENGEWDEANRKKLEIEEKQRVVRRRREAEKELAMKKGDKYEEYEPTWFVRVQDESNGALIHQFKGGYWEAKEQQNWEKCPDIF | not soluble |
| MPSRYTNILVPVDSSDAAQAAFTEAVNIAQRHQANLTALYVVDDSAYHTPALDPVLSELLDAEAAHAKDAMRQRQQFVATTSAPNLKTEISYGIPKHTIEDYAKQHPEIDLIVLGATGTNSPHRVAVGSTTSYVVDHAPCNVIVIR | not soluble |
| MPSTDFADIPAAKKMKIDTCVLRFAKLTENALEPVRGSAKAAGVDLRSAYDVVVPARGKAIVKTDLQVQVPEGSYGRVAPRSGLAVKNFIDVGAGVVDEDYRGNLGVVLFNHSDVDFEVKHGDRIAQFICERIFYPQLVMVDKLEDTERGEAGFGSTGVK | soluble |
| MPSTLSEELVGKYLAAQYQVWIDTSVVTLQIGCQSAPLAALLQATGNRSAVYVTACNPASEVATSQENQSAMARLYERLACYSNHIYRGTGIDPSGEWPAEESLLALGIDLSIAKKIGDEFGQNAIVWIDSAAIPHLVLLC | not soluble |
| MPSTNLTKRDWEKDHVYLVQFPRAGCIPSPSPYAFKVETFLRVADIPYTNINNEFKKMSARGQIPFIELNGRQHADSTIIIDNLTEHFHKSDLEDLSASDKAIARAFFALLEHHLCWVSLYSRGQDFGWLATDTGFGRLLTGIKGFAFKNFIVKSFTKKVRGRAAAQGMGTFSREEVLDQAKKDLDAISTQLGDKPYLFGSSIKTIDVTAFAHLAELIYTPQFSPEIRAYIDEKVPNVMEYVIRIKEKYWPDWEETTNTMNMATVWKKA | not soluble |
